Assay results from article PMC8283798.
pEC50: −log10 of the molar value.

These substances were tested against FcγRIIIa-F158 (low-affinity FcγIIIa receptor allele) (human) (UniProt P08637) (assay: ELISA).
Substance “G2(Az)F (2), core 6-azido-fucosylated Herceptin carrying a complex-type N-glycan (antibody; other documents disagree on this pair)” has a pEC50 of 7.89.
“G2(NH2)F (3), core 6-amino-fucosylated Herceptin (antibody; other documents disagree on this pair)” showed a pEC50 of 7.05.
“G2Ara (6), core D-arabinosylated Herceptin (antibody; other documents disagree on this pair)” gave a pEC50 of 5.84.
Substance “G2(OH- triazol)F (4), core 6-triazole-fucosylated Herceptin (antibody; other documents disagree on this pair)” has a pEC50 of 7.09.
With “G2Gal (5), core L-galactosylated Herceptin (antibody; other documents disagree on this pair)” the pEC50 was 7.07.
With “G2 (11), nonfucosylated Herceptin glycoform carrying the biantennary complex-type N-glycan (antibody; other documents disagree on this pair)” the pEC50 was 7.94.
“G2F (1), core-fucosylated Herceptin glycoform carrying the biantennary complex-type N-glycan (antibody; other documents disagree on this pair)” showed a pEC50 of 5.80.

These substances were tested against FcγRIIIa-V158 (high-affinity FcγIIIa receptor allele) (human) (UniProt P08637) (assay: ELISA).
“G2F (1), core-fucosylated Herceptin glycoform carrying the biantennary complex-type N-glycan (antibody)” gave a pEC50 of 7.37.
Work on “G2 (11), nonfucosylated Herceptin glycoform carrying the biantennary complex-type N-glycan (antibody)” yielded a pEC50 of 8.92.
Work on “G2(NH2)F (3), core 6-amino-fucosylated Herceptin (antibody)” yielded a pEC50 of 8.03.
In the case of “G2Gal (5), core L-galactosylated Herceptin (antibody)”, the pEC50 was 8.14.
Work on “G2(Az)F (2), core 6-azido-fucosylated Herceptin carrying a complex-type N-glycan (antibody)” yielded a pEC50 of 8.54.
“G2Ara (6), core D-arabinosylated Herceptin (antibody)” showed a pEC50 of 7.40.
In the case of “G2(OH- triazol)F (4), core 6-triazole-fucosylated Herceptin (antibody)”, the pEC50 was 7.74.
